1 molecule from PMC9482650, “Quantitative fragmentomics allow affinity mapping of interactomes” (Nature Communications, 2022) can be followed below.

This assay deals with T1, SNTB2, Q13425.
T1 sequence (Q13425 110-208, limits assumed, looked up): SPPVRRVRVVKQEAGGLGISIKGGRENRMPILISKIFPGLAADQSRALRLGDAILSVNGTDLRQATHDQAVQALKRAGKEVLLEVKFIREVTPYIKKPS
The assay is described as follows: holdup assay. Conditions: plain residues with an end cap or a label only (N-terminal biotin on a linker: (peg)3).

B1: SARS-Cov2-3a, P0DTC3 (peptide)
chain: YDEPTTTTSVPL
B1: the pKd result is given as “below the threshold”.
